Results reported in doi:10.1101/2025.06.13.659407 (2025).

Biological target: biotinylated preS1 peptide, residues 69–108 (hepatitis B virus (residues numbered …, C-terminal biotin))
Assay: BLI

B1: sEGF4–6-hFc (soluble fusion protein comprising SCARF2's EGF4–6 domains, with an N-terminal HA tag an (Fc fusion)
chain: GSYPYDVPDYAGSSACYCSATSRCDPQTGACLCHAGWWGRSCNNQCACNSSPCEQQSGRCQCRERTFGARCDRYCQCFRGRCHPVDGTCACEPGYRGKYCR
koff: 0.000289 s⁻¹
